Experimental data: patent US20240166731A1 (Janssen / Centocor, published 2024)
Numbering of substitutions follows the chain as printed. Names and notes keep the numbering of the source. One block for each binder: values may come before it.

Experiments:
[1] = target: T1, human full-length recombinant tau (2N4R) (human, UniProt P10636 2-758); test: SPR, Biacore T200, 25 C, mAb captured by anti-Fc on CM4 chip, tau in solution, 1:1 Langmuir fit; koff based on 1-hour limit, 5% dissociation
T1 construct: also called full length tau protein; full-length recombinant Tau protein
Protocol: (§1) The interactions of anti-tau antibodies with human full-length recombinant tau (2N4R) were studied by SPR using a Biacore T200 at 25° C. with HBS pH 7.4 buffer, supplemented with 3 mM EDTA, and 0.05% Tween 20. Briefly, a biosensor surface was prepared by coupling a mixture of anti-mouse/anti-human IgG Fcγ-fragment specific antibody to the surface of a CM4 sensor chip using manufacturer's instructions for amine-coupling chemistry (>4000 response units (RU)). The coupling buffer was 10 mM sodium acetate, pH 4.5. The anti-tau antibodies were diluted in the running buffer and injected to obtain enough capture to enable detection of antigen binding. Capture of anti-tau mAbs was followed by injection of recombinantly expressed tau solutions ranging from 0.12 nM to 75 nM at 5-fold dilutions. The association and dissociation were monitored for 3 minutes and 60 min respectively at 50 μL/min flow rate. Regeneration of the sensor surface was performed with 0.85% H₃PO₄. The binding sensorgrams were fitted using to a 1:1 Langmuir binding model to obtain on-rates, off-rates, and affinities. PT1B635 and PT1B901 bound to full length tau protein with similar tight affinities as the parent mAbs, PT/66 or PT1B545 (FIG. 3 and Table 2 below).

[2] = target: T1, human full-length recombinant tau (2N4R); test: SPR, Biacore T200, 25 C, mAb captured by anti-Fc on CM4 chip, tau in solution, 1:1 Langmuir fit
Protocol: as §1

[3] = target: T1, human full-length recombinant tau (2N4R); test: SPR, mAb captured, tau in solution, single-cycle kinetics, 1:1 Langmuir fit; koff based on 2-hour limit, 5% dissociation
[4] = target: T1, human full-length recombinant tau (2N4R); test: SPR, mAb captured, tau in solution, single-cycle kinetics, 120 min dissociation, 1:1 Langmuir fit

T1 sequence (P10636 other isoform, or with tags, fused parts or gaps limits assumed): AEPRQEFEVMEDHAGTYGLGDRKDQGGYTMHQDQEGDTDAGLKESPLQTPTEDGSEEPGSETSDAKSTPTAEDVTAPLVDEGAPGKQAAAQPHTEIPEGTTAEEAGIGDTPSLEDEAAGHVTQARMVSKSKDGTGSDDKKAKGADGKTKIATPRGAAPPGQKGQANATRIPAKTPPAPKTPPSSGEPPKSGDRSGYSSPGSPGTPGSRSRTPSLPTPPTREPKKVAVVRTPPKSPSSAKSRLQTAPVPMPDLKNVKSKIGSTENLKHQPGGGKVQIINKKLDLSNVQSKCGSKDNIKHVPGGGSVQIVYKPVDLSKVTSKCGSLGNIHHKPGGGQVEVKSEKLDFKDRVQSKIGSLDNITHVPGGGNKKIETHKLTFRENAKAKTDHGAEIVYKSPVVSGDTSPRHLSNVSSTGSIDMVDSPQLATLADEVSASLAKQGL

B1: PT1B635 (antibody, human IgG1, kappa, V domains shown)
VH: QVQLVQSGAEVKKPGASVKVSCKASGYTFTSYWITWVRQAPGQGLEWMGDIHPGRGSTKYAQKLQGRVTLTTDTSTSTAYMELRSLRSDDTAVYYCARRWGFDYWGQGTLVTVSS
VL: DIVITQTPLSLPVTPGEPASISCRSSKSLLYKDGKTYLNWFLQKPGQSPQLLIYLMSTRASGVPDRFSGSGSGTDFTLKISRVEAEDVGVYYCQQLVDYPLTFGQGTKLEIKR
notes: also called humanized PT/66 variant
koff [1]: < 1.42e-05 s⁻¹
Kd [2]: < 41 pM
kon [2]: 370000 M⁻¹ s⁻¹

B3: PT1B901 (antibody, human IgG1, kappa, V domains shown)
VH: B1 VH
VL: B1 VL with G34L
notes: also called humanized PT/66 variant with G44L in LCDR1
Kd [2]: 59 pM
koff [2]: 2e-05 s⁻¹
kon [2]: 300000 M⁻¹ s⁻¹

B5: PT1B545 (antibody, mouse IgG2a, kappa, V domains shown)
VH: QVQLQQPGAELVKPGASVKMSCKASGYTFTSYWITWVKQRPGQGLEWIGDIHPGRGSTKSNEKFKSKATLTVDTSSSTAYMQFSSLTSEDSAVYYCARRWGFDYWGQGTTLTVSS
VL: DIVITQDELSNPVTSGESVSISCRSSKSLLYKDGKTYLNWFLQRPGQSPQLLIYLMSTRASGVSDRFSGSGSGTDFTLEISRVKAEDVGVYYCQQLVDYPLTFGAGTKLELKR
notes: Recombinant version of the parent mAb PT/66, with mouse constant regions; also called rec. parent; recombinant parent of PT/66
koff [1]: < 1.42e-05 s⁻¹
Kd [2]: < 28 pM
kon [2]: 510000 M⁻¹ s⁻¹

Next, values leading:

koff [3]: < 1.19e-05 s⁻¹
Kd [4]: < 6.18 pM
kon [4]: 1.99e+06 M⁻¹ s⁻¹
B2: PT1B1183 (antibody, human IgG1, kappa, V domains shown)
VH: B1 VH with A40R, L70M
VL: B1 VL with I4M, L11S, P15L, E17Q, L42Q, K44R, Q50R, S72A
notes: also called humanized antibody derived from PT1B1153 by modifying the 2nd light chain framework region

koff [1]: < 1.42e-05 s⁻¹
Kd [2]: < 31 pM
kon [2]: 450000 M⁻¹ s⁻¹
B4: PT/66 anti-PHF-Tau monoclonal Ab (mouse parent) (antibody, V domains shown)
VH: B5 VH
VL: DIVITQDELSNPVTSGESVSISCRSSKSLLYKDGKTYLNWFLQRPGQSPQLLIYLMSTRASGVSDRFSGSGSGTDFTLEISRVKAEDVGVYYCQQLVDYPLTFGAGTKLELK
notes: Murine mAb
